Data published in patent US20220389118A1 (Chugai, published 2022).
Numbering of substitutions follows the chain as printed. Names and notes keep the numbering of the source.

B1: IL6R-PD097/IL6R-L (antibody, human IgG1, kappa)
heavy: QVQLQESGPGLVKPSETLSLTCAVSGHSISHDHAWSWVRQPPGEGLEWIGFISYSGITNYNPSLQGRVTISRDNSKNTLYLQMNSLRAEDTAVYYCARSLARTTAMDYWGEGTLVTVSSASTKGPSVFPLAPSSKSTSGGTAALGCLVKDYFPEPVTVSWNSGALTSGVHTFPAVLQSSGLYSLSSVVTVPSSSLGTQTYICNVNHKPSNTKVDKKVEPKSCDKTHTCPPCPAPELLGGDDVFLFPPKPKDTLYISRTPEVTCVVVDVSHEDPEVKFNWYVDGVEVHNAKTKPREEQYNSTYRVVSVLTVLHQDWLNGKEYKCKVSNKALPAPIEKTISKAKGQPREPQVYTLPPSRDELTKNQVSLTCLVKGFYPSDIAVEWESNGQPENNYKTTPPVLDSDGSFFLYSKLTVDKSRWQQGNVFSCSVMHEALHYHYTQKSLSLSP
light: not shown
notes: also called P238D/S239D; copies: 2 + 2
B2: IL6R-PD043/IL6R-L (antibody, human IgG1, kappa)
heavy: B1 heavy with L236Y, D241S
light: not shown
notes: also called P238D/L234Y; L234Y/P238D; copies: 2 + 2
B3: IL6R-PD082/IL6R-L (antibody, human IgG1, kappa)
heavy: B1 heavy with G239F, D241S
light: not shown
notes: also called P238D/G237F; G237F/P238D; copies: 2 + 2
B4: IL6R-PD095/IL6R-L (antibody, human IgG1, kappa)
heavy: B1 heavy with G239Y, D241S
light: not shown
notes: also called P238D/G237Y; G237Y/P238D; copies: 2 + 2
B5: IL6R-PD081/IL6R-L (antibody, human IgG1, kappa)
heavy: B1 heavy with G239E, D241S
light: not shown
notes: also called P238D/G237E; G237E/P238D; copies: 2 + 2
B6: IL6R-PD086/IL6R-L (antibody, human IgG1, kappa)
heavy: B1 heavy with G239L, D241S
light: not shown
notes: also called P238D/G237L; G237L/P238D; copies: 2 + 2
B7: IL6R-PD094/IL6R-L (antibody, human IgG1, kappa)
heavy: B1 heavy with G239W, D241S
light: not shown
notes: also called P238D/G237W; G237W/P238D; copies: 2 + 2
B8: Fv4-F1392 (antibody, human IgG1, kappa)
heavy: B1 heavy with D240P, D241S, Y254M, M430L, Y436S, Y438K
light: DIQMTQSPSSLSASVGDSVTITCQASTDISSHLNWYQQKPGKAPELLIYYGSHLLSGVPSRFSGSGSGTDFTFTISSLEAEDAATYYCGQGNRLPYTFGQGTKVEIERTVAAPSVFIFPPSDEQLKSGTASVVCLLNNFYPREAKVQWKVDNALQSGNSQESVTEQDSKDSTYSLSSTLTLSKADYEKHKVYACEVTHQGLSSPVTKSFNRGEC
notes: Variant of Fv4-LS; copies: 2 + 2
B9: Fv4-F1388 (antibody, human IgG1, kappa)
heavy: B1 heavy with D240P, D241S, Y254M, M430L, Y436S, Y438F
light: B8 light
notes: as for B8
B10: Fv4-F1389 (antibody, human IgG1, kappa)
heavy: B1 heavy with D240P, D241S, Y254M, M430L, Y436S, Y438T
light: B8 light
notes: as for B8
B11: Fv4-F1386 (antibody, human IgG1, kappa)
heavy: B1 heavy with D240P, D241S, Y254M, S428Y, M430L, Y436S
light: B8 light
notes: as for B8
B12: Fv4-F1390 (antibody, human IgG1, kappa)
heavy: B1 heavy with D240P, D241S, Y254M, M430L, Y436S, Y438H
light: B8 light
notes: as for B8
B13: Fv4-LS (antibody, human IgG1, kappa)
heavy: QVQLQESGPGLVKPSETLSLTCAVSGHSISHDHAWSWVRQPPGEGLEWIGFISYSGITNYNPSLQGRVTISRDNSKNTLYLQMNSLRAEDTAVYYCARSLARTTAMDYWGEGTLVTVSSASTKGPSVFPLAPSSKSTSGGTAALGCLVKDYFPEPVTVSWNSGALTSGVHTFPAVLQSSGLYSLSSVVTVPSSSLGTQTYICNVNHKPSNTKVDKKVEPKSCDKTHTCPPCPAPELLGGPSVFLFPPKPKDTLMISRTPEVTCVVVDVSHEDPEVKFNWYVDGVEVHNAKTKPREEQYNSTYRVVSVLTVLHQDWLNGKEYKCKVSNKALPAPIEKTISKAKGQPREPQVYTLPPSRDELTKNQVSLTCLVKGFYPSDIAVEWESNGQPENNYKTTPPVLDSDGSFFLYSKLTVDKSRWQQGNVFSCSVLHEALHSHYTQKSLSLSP
light: B8 light
notes: also called F22 (LS); F22; copies: 2 + 2
B14: Fv4-F1384 (antibody, human IgG1, kappa)
heavy: B1 heavy with D240P, D241S, Y254M, S428A, M430L, Y436S
light: B8 light
notes: as for B8
B15: Fv4-F1385 (antibody, human IgG1, kappa)
heavy: B1 heavy with D240P, D241S, Y254M, S428Q, M430L, Y436S
light: B8 light
notes: as for B8
B16: Fv4-F1391 (antibody, human IgG1, kappa)
heavy: B1 heavy with D240P, D241S, Y254M, M430L, Y436S, Y438N
light: B8 light
notes: as for B8
B17: Fv4-F1166 (antibody, IgG1)
heavy: B1 heavy with D240P, D241S, S256T, T258E, Y436N, Q440R, S442E
light: B8 light
notes: copies: 2 + 2
B18: Fv4-F1173 (antibody, human IgG1, kappa)
heavy: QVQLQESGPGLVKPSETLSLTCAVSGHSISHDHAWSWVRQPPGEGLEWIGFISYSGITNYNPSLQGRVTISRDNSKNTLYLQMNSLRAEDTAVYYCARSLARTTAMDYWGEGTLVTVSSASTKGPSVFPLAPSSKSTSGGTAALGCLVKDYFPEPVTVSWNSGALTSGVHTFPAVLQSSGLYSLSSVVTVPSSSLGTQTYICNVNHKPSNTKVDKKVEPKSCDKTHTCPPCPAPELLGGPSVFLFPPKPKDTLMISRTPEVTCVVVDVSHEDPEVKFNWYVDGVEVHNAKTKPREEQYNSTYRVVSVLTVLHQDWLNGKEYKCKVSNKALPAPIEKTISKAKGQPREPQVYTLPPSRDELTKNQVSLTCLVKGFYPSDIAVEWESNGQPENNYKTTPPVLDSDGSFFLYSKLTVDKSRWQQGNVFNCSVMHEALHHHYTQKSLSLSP
light: B8 light
notes: copies: 2 + 2
B19: Fv4-F1172 (antibody, IgG1)
heavy: B1 heavy with D240P, D241S, Y254M, Y436H, Q440R, S442E
light: B8 light
notes: copies: 2 + 2
B20: Fv4-F1167 (antibody, human IgG1, kappa)
heavy: B1 heavy with D240P, D241S, S256T, T258E, S426N, Y436N
light: B8 light
notes: copies: 2 + 2
B21: Fv4-YTE (antibody, human IgG1, kappa)
heavy: B1 heavy with D240P, D241S, S256T, T258E, Y436N
light: B8 light
notes: copies: 2 + 2
B22: Fv4-N434H (antibody, human IgG1, kappa)
heavy: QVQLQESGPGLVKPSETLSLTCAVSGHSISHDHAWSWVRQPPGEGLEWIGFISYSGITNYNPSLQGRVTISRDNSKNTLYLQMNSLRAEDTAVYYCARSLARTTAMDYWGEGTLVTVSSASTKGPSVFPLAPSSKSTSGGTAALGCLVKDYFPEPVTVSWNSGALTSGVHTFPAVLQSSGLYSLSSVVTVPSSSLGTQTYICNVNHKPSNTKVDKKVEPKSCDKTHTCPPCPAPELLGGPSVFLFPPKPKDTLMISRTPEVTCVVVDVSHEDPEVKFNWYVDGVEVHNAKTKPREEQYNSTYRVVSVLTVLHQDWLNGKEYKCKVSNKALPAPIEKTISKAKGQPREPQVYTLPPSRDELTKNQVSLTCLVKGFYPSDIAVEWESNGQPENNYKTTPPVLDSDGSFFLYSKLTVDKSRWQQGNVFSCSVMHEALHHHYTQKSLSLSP
light: B8 light
notes: copies: 2 + 2
B23: Fv4-F1171 (antibody, human IgG1, kappa)
heavy: B1 heavy with D240P, D241S, Y254M, S426N, M430L, Y436S
light: B8 light
notes: copies: 2 + 2
B24: IL6R-BP200/IL6R-L (antibody, human IgG1, kappa)
heavy: B1 heavy with E235D, L236Y, G239D, D241S, Y254M, P273G, K328D, A332R, Y436N, K441E
light: not shown
notes: copies: 2 + 2
B25: IL6R-BP206/IL6R-L (antibody, human IgG1, kappa)
heavy: B1 heavy with E235D, D241S, Y254M, P273G, A332R, Y436N, K441E
light: not shown
notes: copies: 2 + 2
B26: IL6R-BP187/IL6R-L (antibody, human IgG1, kappa)
heavy: B1 heavy with L236Y, D241S, Y254M, P273G, K328A, A332K, Y436N, K441E
light: not shown
notes: copies: 2 + 2
B27: IL6R-BP191/IL6R-L (antibody, human IgG1, kappa)
heavy: B1 heavy with E235D, D241S, Y254M, H270D, P273G, K328A, A332K, Y436N, K441E
light: not shown
notes: copies: 2 + 2
B28: IL6R-BP192/IL6R-L (antibody, human IgG1, kappa)
heavy: B1 heavy with E235D, D241S, Y254M, H270D, P273G, Y298D, A332K, Y436N, K441E
light: not shown
notes: copies: 2 + 2
B29: IL6R-BP203/IL6R-L (antibody, human IgG1, kappa)
heavy: B1 heavy with G239D, D241S, Y254M, P273G, A332R, Y436N, K441E
light: not shown
notes: copies: 2 + 2
B30: IL6R-BP189/IL6R-L (antibody, human IgG1, kappa)
heavy: B1 heavy with G239D, D241S, Y254M, H270D, P273G, K328A, A332K, Y436N, K441E
light: not shown
notes: copies: 2 + 2
B31: IL6R-BP542/IL6R-L (antibody, human IgG1, kappa)
heavy: B1 heavy with E235D, G239D, D241S, Y254M, H270D, P273G, Y298F, A332R, Y436N, K441E
light: not shown
notes: Y296F introduced into IL6R-BP230 (takes the place of Y296D); copies: 2 + 2

The binders below were run against T1, human FcγRIIIa type V extracellular domain with C-terminal His tag (human, UniProt P08637 17-208) (assay: SPR, Ref. Ex. 25).
T1 construct: extracellular domain; also called FcγRIIIaV; FcγRIIIa V type
T1 sequence (P08637 17-208 F176V): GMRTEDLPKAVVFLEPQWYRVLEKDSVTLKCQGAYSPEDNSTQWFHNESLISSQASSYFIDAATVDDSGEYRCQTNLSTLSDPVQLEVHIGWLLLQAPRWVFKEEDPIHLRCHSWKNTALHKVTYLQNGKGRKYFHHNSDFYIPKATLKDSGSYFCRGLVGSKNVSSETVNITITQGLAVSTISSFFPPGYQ

Row | Binder | Kd [µM]
1 | B1 | 17
2 | B2 | 45
3 | B3 | 43
4 | B4 | 42
5 | B5 | 41
6 | B6 | 41
7 | B7 | 38

What follows are binders tested against T2, human FcγRIIa type R extracellular domain with C-terminal His tag (human, UniProt P12318 34-217) (assay: SPR, Ref. Ex. 25).
T2 construct: extracellular domain; also called FcγRIIaR; FcγRIIa R
T2 sequence (looked up): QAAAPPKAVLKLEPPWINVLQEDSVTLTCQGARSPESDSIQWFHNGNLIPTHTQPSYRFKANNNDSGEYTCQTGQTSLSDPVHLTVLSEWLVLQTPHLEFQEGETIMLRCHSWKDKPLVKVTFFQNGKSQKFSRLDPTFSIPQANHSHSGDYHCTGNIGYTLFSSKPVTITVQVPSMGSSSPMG

Row | Binder | Kd [µM]
8 | B2 | 26
9 | B3 | 14
10 | B4 | 7.9
11 | B5 | 38
12 | B7 | 7.2

What follows are binders tested against T3, human FcRn (human, UniProt P55899 24-297; P61769 21-119) (assay: binding to FcRn at pH 6.0; method not stated).
T3 construct: the construct is not described
T3 sequence (P55899 24-297 limits assumed, chain 1 of 2): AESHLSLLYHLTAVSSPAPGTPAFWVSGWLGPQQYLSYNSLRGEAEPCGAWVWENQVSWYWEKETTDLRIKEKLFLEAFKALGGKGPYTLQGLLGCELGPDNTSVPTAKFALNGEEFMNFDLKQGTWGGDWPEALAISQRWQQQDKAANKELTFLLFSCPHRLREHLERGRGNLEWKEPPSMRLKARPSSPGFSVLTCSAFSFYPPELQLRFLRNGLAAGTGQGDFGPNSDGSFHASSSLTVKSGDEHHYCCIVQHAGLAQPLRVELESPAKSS
T3 sequence (P61769 21-119 limits assumed, chain 2 of 2): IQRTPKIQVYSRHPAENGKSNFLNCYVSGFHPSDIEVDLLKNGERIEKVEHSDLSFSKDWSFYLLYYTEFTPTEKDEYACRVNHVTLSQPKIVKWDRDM

Row | Binder | Kd [nM]
13 | B8 | 270
14 | B9 | 80
15 | B10 | 68
16 | B11 | 160
17 | B12 | 400
18 | B13 | 71
19 | B14 | 86
20 | B15 | 77
21 | B16 | 420

Each binder was assayed against T3, human FcRn (assay: FcRn binding affinity at pH 6.0; method not stated).

Row | Binder | Kd [nM]
22 | B17 | 210
23 | B18 | 530
24 | B19 | 400
25 | B13 | 160
26 | B20 | 250
27 | B21 | 210
28 | B22 | 430
29 | B23 | 240

The binders below were run against T4, human FcγRIIb extracellular domain with C-terminal His tag (human, UniProt P31994 43-217) (assay: SPR (Biacore), antibody captured, FcγR analyte).
T4 construct: extracellular domain; not shown: His tag at the C terminus
T4 sequence (looked up): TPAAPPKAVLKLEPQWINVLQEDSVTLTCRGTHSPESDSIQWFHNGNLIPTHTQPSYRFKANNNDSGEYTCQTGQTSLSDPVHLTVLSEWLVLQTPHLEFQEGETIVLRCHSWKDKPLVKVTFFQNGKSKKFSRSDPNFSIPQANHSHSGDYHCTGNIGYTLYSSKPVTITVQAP

Row | Binder | Kd [nM]
30 | B24 | 34
31 | B25 | 200

Each binder was assayed against T5, human FcγRIIa type R (allotype R131) extracellular domain with C-terminal His tag (human, UniProt P12318 34-217) (assay: SPR (Biacore), antibody captured, FcγR analyte).
T5 construct: extracellular domain; also called FcγRIIaR; FcγRIIa R type; not shown: His tag at the C terminus
T5 sequence (looked up): T2 sequence (looked up)

Row | Binder | Kd [nM]
32 | B26 | 2800
33 | B27 | 3000
34 | B28 | 2600
35 | B29 | 990

What follows are binders tested against T6, human FcγRIa extracellular domain with C-terminal His tag (human, UniProt P12314 16-292) (assay: SPR (Biacore), antibody captured, FcγR analyte).
T6 construct: not shown: His tag at the C terminus
T6 sequence (P12314 16-292): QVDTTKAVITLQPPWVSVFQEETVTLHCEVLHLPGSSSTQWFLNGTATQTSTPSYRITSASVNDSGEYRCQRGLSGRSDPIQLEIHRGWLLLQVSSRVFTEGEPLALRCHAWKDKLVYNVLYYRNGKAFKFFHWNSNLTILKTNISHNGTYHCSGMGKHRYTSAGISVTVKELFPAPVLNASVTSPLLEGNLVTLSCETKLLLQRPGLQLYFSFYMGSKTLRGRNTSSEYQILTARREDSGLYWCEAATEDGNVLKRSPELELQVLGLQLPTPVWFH

Row | Binder | Kd [nM]
36 | B26 | 25
37 | B27 | 4
38 | B30 | 42
39 | B28 | 6.6
40 | B29 | 180

Each binder was assayed against T7, human FcγRIIIa type V (allotype V158) extracellular domain with C-terminal His tag (human, UniProt P08637 17-208) (assay: SPR (Biacore), antibody captured, FcγR analyte).
T7 construct: extracellular domain; also called FcγRIIIaV; FcγRIIIa V type; not shown: His tag at the C terminus
T7 sequence (P08637 17-208 F176V): as the sequence (P08637 17-208 F176V) above

Row | Binder | Kd [µM]
41 | B26 | 56
42 | B29 | 72
43 | B25 | 69

These binders were tested against T8, human FcγRIIb extracellular domain with C-terminal His tag (human, UniProt P31994 43-217) (assay: SPR (Biacore), antibody captured, FcγR analyte).
T8 construct: extracellular domain; not shown: His tag at the C terminus
T8 sequence (looked up): T4 sequence (looked up)

Row | Binder | Kd [nM]
44 | B31 | 20
